Biological target: T1, cytosolic receptor domain of rat Tom20 (dTom20), uniformly 15N-labelled (Rattus norvegicus, UniProt Q62760 51-145, uniformly [15N]-labelled)
T1 construct: Tom20 from Rattus norvegicus, cytosolic receptor domain, residues 51-145; Cloned into pET-22b without the stop codon; also called [15N]-dTom20; rat dTom20; source: E. coli BL21(DE3), purified (Ni-NTA, gel filtration on Superdex 200)
T1 sequence (looked up): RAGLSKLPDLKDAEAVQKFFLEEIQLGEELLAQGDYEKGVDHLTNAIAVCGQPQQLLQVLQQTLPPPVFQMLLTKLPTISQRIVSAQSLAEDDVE
Assay: NMR titration; [1H,15N]-HSQC of 210 μM [15N]-dTom20 in 20 mM KPi pH 6.4, 50 mM KCl, 5% DMSO; aliquots of 10 mM unlabelled cyclic peptide in DMSO added (two molar excess); DMSO effect subtracted
Settings: both partners purified

B1: cyclic β-hairpin peptide derived from human voltage-dependent anion channel 1 (hVDAC1) (peptide)
peptide: LTLSALLDGKNVNAGGHKLGLGLPP
modifications: head-to-tail cyclised: the new C terminus (after the two added Pro) covalently linked to the N terminus
notes: human voltage-dependent anion channel 1 (hVDAC1), last two β-strands and the loop between them, a.a; L257 to L279; residue numbers correspond to full-length hVDAC1; two Pro residues added to the C terminus (told in words); Measured mass [M+H]+ = 2,436.48; also called cyclic peptide; source: synthetic peptide (Fmoc/tBu chemistry, cyclised, purified by RP-HPLC)
Q: Does B1 bind?
A: Result: binds
